Measured values taken from PMC6920932.

Columns and labels:
[1] = target: haloalkane dehalogenase DmxA wild type from Marinobacter sp. ELB17 (Marinobacter sp. ELB17); experiment: not stated; DmxA wt in solution; the discussion does not say which experiment gave the share of dimer
[2] = target: haloalkane dehalogenase DmxA wild type from Marinobacter sp. ELB17 (Marinobacter sp. ELB17); experiment: native gel or EMSA; native polyacrylamide gel, 4 °C, 115 V, Coomassie stain; reduced (10 mM DTT, degassed, nitrogen) and non-reduced samples compared; LinB (34 kDa, monomer) and DbjA (66 kDa, dimer) as size standards
[3] = target: haloalkane dehalogenase DmxA wild type from Marinobacter sp. ELB17 (Marinobacter sp. ELB17); experiment: SEC; gel filtration chromatography of purified DmxA wt; conditions not told in the text shown
[4] = test system: N#CCCCBr; experiment: purified protein; settings: 100 mM glycine buffer pH 8.6, 37 °C, substrate inhibition
[5] = test system: BrCCCBr; experiment: purified protein; settings: 100 mM glycine buffer pH 8.6, 37 °C, cooperativity and partial substrate inhibition

With “haloalkane dehalogenase DmxA wild type from Marinobacter sp. ELB17 (enzyme)” the percent of the enzyme present as a dimer [1] was less than 30%, the stoichiometry N [2] was 2 and the stoichiometry N [3] was 2.
Work on DmxA (Marinobacter sp. ELB17) yielded a Km [4] of 670 µM, a kcat [4] of 1.89 s⁻¹ and a Km [5] of 30 µM. The kcat [5] was 2.61 s⁻¹.
